T1: Strep-CD9P1-ECD (recombinant soluble human CD9P-1 extracellular domain with Strep tag) (human, UniProt Q9P2B2 22-832)
T1 construct: The limits 22-832 are stated for the recombinant extracellular domain made in CHO cells and used as immunogen; also called recombinant CD9P-1 extracellular domain; not shown: Strep tag; Residue numbers of the construct are 8 higher than those of CD9P-1
T1 sequence: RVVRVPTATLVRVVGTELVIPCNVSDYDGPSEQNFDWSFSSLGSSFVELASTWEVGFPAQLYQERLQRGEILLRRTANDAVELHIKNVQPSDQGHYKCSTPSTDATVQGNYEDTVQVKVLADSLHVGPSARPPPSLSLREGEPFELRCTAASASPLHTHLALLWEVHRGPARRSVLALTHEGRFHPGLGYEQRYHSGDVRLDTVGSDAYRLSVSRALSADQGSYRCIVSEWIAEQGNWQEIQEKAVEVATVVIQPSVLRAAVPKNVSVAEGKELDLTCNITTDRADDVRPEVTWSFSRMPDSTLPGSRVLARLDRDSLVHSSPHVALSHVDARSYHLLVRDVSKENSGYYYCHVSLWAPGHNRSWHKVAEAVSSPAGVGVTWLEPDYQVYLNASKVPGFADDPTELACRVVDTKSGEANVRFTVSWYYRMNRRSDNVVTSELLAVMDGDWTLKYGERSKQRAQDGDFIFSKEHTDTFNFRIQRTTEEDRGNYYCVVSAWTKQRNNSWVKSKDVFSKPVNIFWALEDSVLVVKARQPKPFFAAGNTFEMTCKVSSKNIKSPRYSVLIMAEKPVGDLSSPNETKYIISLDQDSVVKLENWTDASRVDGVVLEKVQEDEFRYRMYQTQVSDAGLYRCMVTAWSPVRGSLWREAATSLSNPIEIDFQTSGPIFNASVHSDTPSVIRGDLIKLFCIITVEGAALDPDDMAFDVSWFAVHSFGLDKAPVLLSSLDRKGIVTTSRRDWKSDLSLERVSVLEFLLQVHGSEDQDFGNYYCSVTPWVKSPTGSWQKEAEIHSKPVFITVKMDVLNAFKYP


Molecular target: T1, Strep-CD9P1-ECD (recombinant soluble …)
Assay: SPR; Strep-CD9P1-ECD coated on sensor chip, antibody flowed over
Source text: Recombinant Strep-CD9P1-ECD was coated on sensor chip and several concentrations of the antibodies were flowed over the chip to obtain binding and dissociation kinetics.

Kd [nM] | koff [s⁻¹] | kon [M⁻¹ s⁻¹] | Binder
90.9 | 0.00491 | 54100 | 9bF4 mAb (mouse anti-human CD9P-1 monoclonal antibody, hybridoma CNCM I-5213) (antibody, V domains shown, Mouse IgG from a hybridoma, purified on protein G; also called Mouse IgG 9bF4; IgG 9bF4) VH: QVQLQQSGAELVKPGTSVKLSCKTSGYTFTSYWIQWIKQRPGQGLGWIGEIFPGTGTTSYHEKFKGKATLTIDTSSSTAYLQLSNLTSEDSAVYFCSRDFDVWGAGTTVTVSS VL: not shown
899 | 0.0118 | 13200 | 10bB1 mAb (mouse anti-human CD9P-1 monoclonal antibody, hybridoma CNCM I-5214) (antibody, V domains shown, Mouse IgG from a hybridoma; also called IgG 10bB1; 10bB11) VH: QVQLQQSGAELVKPGTSVKLSCKTSGYTFTSYWIQWIKQRPGQGLGWIGEIFPGTGTTSYHEKFKGKATLTIDTSSSTAYLQLSNLTSEDSAVYFCSRDFDVWGAGTTVTVSS VL: not shown
